Test results taken from patent publication US20050079613.

Tested on: three human E2 enzymes UbCH2, UbCH3 and UbCH5a (at least one of these three enzymes)

Substance: GST fusion of the MARCH-VIII RING-CH domain
- formation of high-molecular weight ubiquitin complexes in vitro (anti-ubiquitin blot): The RiNG-CH-GST fusion proteins of all four MARCH-proteins tested were able to catalyze the formation of high-molecular weight molecular ubiquitin complexes in the presence of at least one of these three enzymes
